The target in assay [1] is T1, Human recombinant VEGF165 (human, UniProt P15692 181-395).
T1 construct: also called rhVEGF165; rhVEGF
Briefly: ELISA, human VEGF165 coated at 20 ng/well, antibody serially diluted from 1 ug/ml, peroxidase anti-human Ig, absorbance 450 nm. Here is the method: (§1) Next, after 3 times of washing with 300 μL of 0.02% Tween 20-containing PBS (−) (hereafter, denoted as “PBS-T”), 300 μL of 3% skim milk-containing PBS (−) was dispensed to each well, followed by blocking at 37° C. for 1 hour. […] After washing similarly, TMB Single Solution was added for color development at room temperature. After the reaction was stopped with 1 N sulfuric acid, absorbance at 450 nm was measured using a plate reader (Molecular Devices).

In another assay the target is T2, human VEGF121 (human, UniProt P15692 207-321).
T2 sequence: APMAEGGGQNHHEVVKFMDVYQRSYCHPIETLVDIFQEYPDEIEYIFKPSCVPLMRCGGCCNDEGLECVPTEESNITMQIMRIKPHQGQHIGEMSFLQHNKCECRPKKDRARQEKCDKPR
Briefly: ELISA, human VEGF121 coated at 20 ng/well, antibody serially diluted from 1 ug/ml, peroxidase anti-human Ig, absorbance 450 nm. The protocol:
as §1

For another assay, the target named is T3, canine VEGFA (VEGF164) (canine, UniProt Q9MYV3-3 27-190).
T3 construct: also called canine VEGF164
T3 sequence (looked up): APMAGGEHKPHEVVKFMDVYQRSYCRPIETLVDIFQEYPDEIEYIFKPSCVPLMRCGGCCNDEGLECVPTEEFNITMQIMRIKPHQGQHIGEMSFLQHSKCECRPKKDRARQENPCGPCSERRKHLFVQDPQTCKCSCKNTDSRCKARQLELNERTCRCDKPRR
Briefly: ELISA, canine VEGFA coated at 20 ng/well, antibody serially diluted from 1 ug/ml, peroxidase anti-canine Ig, absorbance 450 nm. Here is the method:
(§2) Next, after 3 times of washing with 300 μL of 0.02% Tween 20-containing PBS (−) (hereafter, denoted as “PBS-T”), 300 μL of 3% skim milk-containing PBS (−) was dispensed into each well, followed by blocking at 37° C. for 1 hour. […] After washing similarly, TMB Single Solution was added for color development at room temperature. After the reaction was stopped with 1 N sulfuric acid, absorbance at 450 nm was measured using a plate reader (Molecular Devices).

Assay [2] addresses T1, Human recombinant VEGF165. Put plainly: ELISA, human VEGF165 coated at 20 ng/well, antibody serially diluted from 1 ug/ml, peroxidase anti-canine Ig, absorbance 450 nm. The protocol:
as §2

The target in assay [3] is T1, Human recombinant VEGF165. Put plainly: measured KD for rhVEGF set against a cited KD of Avastin; the excerpt does not show the method.
Assay [4] has as its target T1, Human recombinant VEGF165. Briefly: SPR, BIAcore-3000, rhVEGF immobilized on the chip, antibody injected.

This is an account of results in patent US20200165330A1 (ORDER MADE MEDICAL RESEARCH, published 2020).

B1: human IgG1 chimeric KLHb1501 antibody (antibody, V domains shown)
VH: DVQLQESGPGLVKPSQSLSLTCTVTGYSITSDYAWTWIRQFPGDKLEWMGYISYSGSTRYNPSLKSRISITRDTSKNQFFLHLNSVTTEDTATYFCARGGDYYGSRPWFAYWGQGTLVTVSA
VL: QAVVTQESALTTSPGETVTLTCRSSTGAVTISNYANWVQEKPDHLFTGLIGGTNNRAPDVPARFSGSLIGDKAALTITGAQTEDEAIYFCALWYSNHLVFGEGTKLTVL
notes: also called KLHb1501HC; KLHb1501HC antibody
On to B1, for which the “EC50 (read off the curve)” value (in assay [1]; in the assay with human VEGF121) was ~0.04 µg/mL in each case.

B2: canine-IgGB chimeric KLHb1501 antibody (antibody, V domains shown)
VH: B1 VH
VL: QAVVTQESALTTSPGETVTLTCRSSTGAVTISNYANWVQEKPDHLFTGLIGGTNNRAPDVPARFSGSLIGDKAALTITGAQTEDEAIYFCALWYSNHLVFGEGTKLTVLQ
notes: also called KLHb1501CC; KLHb1501CC antibody
In the case of B2, the “EC50 (read off the curve)” value (with canine VEGFA (VEGF164); in assay [2]) was ~0.03 µg/mL in each case.

B3: KLHb1501 (antibody, V domains shown)
VH: B1 VH
VL: B1 VL
notes: also called KLHb1501 antibody; KLH1501
Take B3: the “ratio of dissociation constant to that of Avastin (bevacizumab)” value in assay [3] is ≤ 0.001 ratio (KD of the antibody / KD of Avastin, cited as 4.9 nmol/L). In addition, the Kd in assay [4] was found to be 0.6 pM.
